Test results reported in the Immune Epitope Database (IEDB).

Legend:
HLA-A*02:03 [1] = test: IEDB peptide-MHC binding, purified MHC/direct/fluorescence; filed as Kd, often an IC50 or EC50 that approximates it; ≥ and ≤ were set here for values at or beyond the usual limits of such assays
HLA-A*02:11 = test: as above; settings: source organism: Zaire ebolavirus
HLA-A*02:12 = test: as above
HLA-A*02:16 = test: as above; settings: source organism: Zaire ebolavirus
HLA-A*02:19 = test: as above
HLA-A*03:01 = test: as above
HLA-A*23:01 [2] = test: as above
HLA-A*24:03 = test: as above
HLA-A*29:02 = test: as above
HLA-A*68:02 = test: as above
HLA-A*02:01 [3] = test: IEDB peptide-MHC binding, purified MHC/competitive/fluorescence; filed as Kd, often an IC50 or EC50 that approximates it; ≥ and ≤ were set here for values at or beyond the usual limits of such assays
HLA-A*26:01 [4] = test: as above
HLA-A*69:01 = test: as above
HLA-B*15:01 [5] = test: as above; settings: source organism: Zaire ebolavirus
HLA-B*15:17 [6] = test: as above
HLA-B*18:01 [7] = test: as above
HLA-B*27:03 = test: as above
HLA-B*39:01 = test: as above
HLA-B*46:01 [8] = test: as above
HLA-B*51:01 = test: as above
HLA-B*57:01 [9] = test: as above
HLA-A*23:01 [10] = test: as above; settings: source organism: Yersinia enterocolitica (type O:8)
HLA-A*11:01 = test: IEDB peptide-MHC binding, purified MHC/direct/fluorescence; filed as Kd, often an IC50 or EC50 that approximates it; ≥ and ≤ were set here for values at or beyond the usual limits of such assays
HLA-A*01:01 = test: as above
HLA-A*02:01 [11] = test: as above
HLA-A*26:01 [12] = test: as above; settings: source organism: Campylobacter jejuni
HLA-A*26:02 = test: as above
HLA-A*31:01 = test: as above
HLA-B*07:02 = test: as above
HLA-B*08:01 = test: as above
HLA-B*08:02 = test: as above
HLA-B*08:03 = test: as above
HLA-B*15:01 [13] = test: as above
HLA-B*15:17 [14] = test: as above
HLA-B*27:05 = test: as above
HLA-B*46:01 [15] = test: as above
HLA-B*48:01 = test: as above
HLA-B*57:01 [16] = test: as above
HLA-B*58:01 = test: as above
HLA-A*02:03 [17] = test: IEDB peptide-MHC binding, purified MHC/competitive/fluorescence; filed as Kd, often an IC50 or EC50 that approximates it; ≥ and ≤ were set here for values at or beyond the usual limits of such assays; settings: source organism: Campylobacter jejuni subsp. jejuni BH-01-0142
HLA-A*02:06 = test: as above
HLA-B*40:01 [18] = test: as above; settings: source organism: Campylobacter jejuni subsp. jejuni BH-01-0142
HLA-B*18:01 [19] = test: IEDB peptide-MHC binding, purified MHC/direct/fluorescence; filed as Kd, often an IC50 or EC50 that approximates it; ≥ and ≤ were set here for values at or beyond the usual limits of such assays; settings: source organism: Vibrio parahaemolyticus
HLA-B*40:01 [20] = test: as above; settings: source organism: Vibrio parahaemolyticus
[21] = source organism: Zaire ebolavirus
[22] = source organism: Giardia lamblia ATCC 50803
[23] = source organism: Campylobacter jejuni
[24] = source organism: Vibrio parahaemolyticus
[25] = source organism: Vibrio parahaemolyticus RIMD 2210633

## HLSGWELAK
HLA-A*02:03 [1]; [21]
  Kd: ≥ 20 µM
HLA-A*02:11
  Kd: ≥ 20 µM
HLA-A*02:12; [21]
  Kd: ≥ 20 µM
HLA-A*02:16
  Kd: ≥ 20 µM
HLA-A*02:19; [21]
  Kd: ≥ 20 µM
HLA-A*03:01; source organism: Sudan ebolavirus - Maleo (1979)
  Kd: 0.148 µM
HLA-A*23:01 [2]; [21]
  Kd: ≥ 20 µM
HLA-A*24:03; [21]
  Kd: ≥ 20 µM
HLA-A*29:02; [21]
  Kd: ≥ 20 µM
HLA-A*68:02; [21]
  Kd: ≥ 20 µM
HLA-A*02:01 [3]; [21]
  Kd: ≥ 20 µM
HLA-A*26:01 [4]; [21]
  Kd: ≥ 20 µM
HLA-A*69:01; [21]
  Kd: ≥ 20 µM
HLA-B*15:01 [5]
  Kd: ≥ 20 µM
HLA-B*15:17 [6]; [21]
  Kd: ≥ 20 µM
HLA-B*18:01 [7]; [21]
  Kd: ≥ 20 µM
HLA-B*27:03; [21]
  Kd: ≥ 20 µM
HLA-B*39:01; [21]
  Kd: ≥ 20 µM
HLA-B*46:01 [8]; [21]
  Kd: ≥ 20 µM
HLA-B*51:01; [21]
  Kd: ≥ 20 µM
HLA-B*57:01 [9]; [21]
  Kd: ≥ 20 µM

## TYQVYRYII
HLA-A*23:01 [10]
  Kd: ≤ 0.0001 µM

## RIYDPLWFQ
HLA-A*02:03 [1]; [22]
  Kd: ≥ 20 µM
HLA-A*02:12; [22]
  Kd: ≥ 20 µM
HLA-A*02:19; [22]
  Kd: ≥ 20 µM
HLA-A*03:01; [22]
  Kd: ≥ 20 µM
HLA-A*11:01; [22]
  Kd: 2.93 µM
HLA-A*23:01 [2]; [22]
  Kd: ≥ 20 µM
HLA-A*24:03; [22]
  Kd: ≥ 20 µM
HLA-A*29:02; [22]
  Kd: ≥ 20 µM
HLA-A*68:02; [22]
  Kd: ≥ 20 µM
HLA-A*02:01 [3]; [22]
  Kd: ≥ 20 µM
HLA-A*26:01 [4]; [22]
  Kd: ≥ 20 µM
HLA-A*69:01; [22]
  Kd: ≥ 20 µM
HLA-B*15:17 [6]; [22]
  Kd: ≥ 20 µM
HLA-B*18:01 [7]; [22]
  Kd: ≥ 20 µM
HLA-B*27:03; [22]
  Kd: ≥ 20 µM
HLA-B*39:01; [22]
  Kd: ≥ 20 µM
HLA-B*46:01 [8]; [22]
  Kd: ≥ 20 µM
HLA-B*51:01; [22]
  Kd: ≥ 20 µM
HLA-B*57:01 [9]; [22]
  Kd: ≥ 20 µM

## VSIRGSHHK
HLA-A*01:01; [23]
  Kd: ≥ 20 µM
HLA-A*02:01 [11]; [23]
  Kd: ≥ 20 µM
HLA-A*03:01; [23]
  Kd: 0.145 µM
HLA-A*11:01; [23]
  Kd: 0.091 µM
HLA-A*26:01 [12]
  Kd: ≥ 20 µM
HLA-A*26:02; [23]
  Kd: ≥ 20 µM
HLA-A*31:01; [23]
  Kd: 4.88 µM
HLA-A*68:02; [23]
  Kd: ≥ 20 µM
HLA-B*07:02; [23]
  Kd: ≥ 20 µM
HLA-B*08:01; [23]
  Kd: ≥ 20 µM
HLA-B*08:02; [23]
  Kd: ≥ 20 µM
HLA-B*08:03; [23]
  Kd: ≥ 20 µM
HLA-B*15:01 [13]; [23]
  Kd: ≥ 5 µM
HLA-B*15:17 [14]; [23]
  Kd: ≥ 20 µM
HLA-B*27:05; [23]
  Kd: ≥ 20 µM
HLA-B*46:01 [15]; [23]
  Kd: ≥ 20 µM
HLA-B*48:01; [23]
  Kd: ≥ 20 µM
HLA-B*57:01 [16]; [23]
  Kd: ≥ 20 µM
HLA-B*58:01; [23]
  Kd: ≥ 20 µM
HLA-A*02:03 [17]
  Kd: 3.41 µM
HLA-A*02:06; source organism: Campylobacter jejuni subsp. jejuni BH-01-0142
  Kd: 5.13 µM
HLA-B*40:01 [18]
  Kd: 3.19 µM

## VFMDNAFKK
HLA-A*01:01; [24]
  Kd: ≥ 20 µM
HLA-A*02:01 [11]; [24]
  Kd: ≥ 20 µM
HLA-A*03:01; [24]
  Kd: 1.38 µM
HLA-A*11:01; [24]
  Kd: 0.131 µM
HLA-A*26:02; [25]
  Kd: ≥ 20 µM
HLA-A*31:01; [24]
  Kd: 2.21 µM
HLA-A*68:02; [24]
  Kd: ≥ 20 µM
HLA-B*07:02; [24]
  Kd: ≥ 20 µM
HLA-B*08:01; [25]
  Kd: ≥ 20 µM
HLA-B*08:02; [25]
  Kd: ≥ 20 µM
HLA-B*08:03; [25]
  Kd: ≥ 20 µM
HLA-B*15:01 [13]; [24]
  Kd: ≥ 20 µM
HLA-B*15:17 [14]; [24]
  Kd: ≥ 20 µM
HLA-B*18:01 [19]
  Kd: ≥ 20 µM
HLA-B*27:05; [24]
  Kd: ≥ 20 µM
HLA-B*40:01 [20]
  Kd: ≥ 20 µM
HLA-B*46:01 [15]; [24]
  Kd: ≥ 20 µM
HLA-B*48:01; [24]
  Kd: ≥ 20 µM
HLA-B*57:01 [16]; [24]
  Kd: ≥ 20 µM
HLA-B*58:01; [24]
  Kd: ≥ 20 µM
HLA-A*02:06; [25]
  Kd: 0.291 µM
